# Assay results published in PMC10010047.
# Biological target: insulin growth factor-1 receptor (IGF1R) (mouse (endogenous in mouse heart))
# Assay: BLI
binder,measurement,value
recombinant mouse SIRPα Fc chimera protein (rSIRPα) (Fc fusion) KELKVTQPEKSVSVAAGDSTVLNCTLTSLLPVGPIRWYRGVGPSRLLIYSFAGEYVPRIRNVSDTTKRNNMDFSIRISNVTPADAGIYYCVKFQKGSSEPDTEIQSGGGTEVYVLAKPSPPEVSGPADRGIPDQKVNFTCKSHGFSPRNITLKWFKDGQELHPLETTVNPSGKNVSYNISSTVRVVLNSMDVNSKVICEVAHITLDRSPLRGIANLSNFIRVSPTVKVTQQSPTSMNQVNLTCRAERFYPEDLQLIWLENGNVSRNDTPKNLTKNTDGTYNYTSLFLVNSSAHREDVVFTCQVKHDQQPAITRNHTVLGFAHSSDQGSMQTFPDNNATHNWN,Kd,147 µM
